Assay results: US20240116985A1, “STAPLED PEPTIDES AND METHODS THEREOF” (priority 2020, published 2024)
Starred links: 1 amine or outer side, 2 acyl side, 3 side chain; linkers in the order of their positions; H or OH if unused. Positions of bridges follow the written chain, without caps; N, C: chain ends. Non-standard residues stand in square brackets, D forms with d. Primed or numbered codes have the meaning given here. No end group written: not given here. PyrS2″ = (S)-3-amino-1-((pent-4-en-1-yloxy)carbonyl)pyrrolidine-3-carboxylic acid (stapling residue), C=CCCCOC(=O)N1CC[C@@](N[*:1])(C(=O)[*:2])C1; B5(4) = 2,2-bis(4-pentenyl)glycine = 2-amino-2-(pent-4-en-1-yl)hept-6-enoic acid (stitching residue), C=CCCCC(CCCC=C)(N[*:1])C(=O)[*:2]; B5(5) = 2,2-bis(4-pentenyl)glycine, 2-amino-2-(pent-4-en-1-yl)hept-6-enoic acid (stitching residue), C=CCCCC(CCCC=C)(N[*:1])C(=O)[*:2]; PyrS2 = (S)-3-amino-1-((pent-4-en-1-yloxy)carbonyl)pyrrolidine-3-carboxylic acid, C=CCCCOC(=O)N1CC[C@@](N[*:1])(C(=O)[*:2])C1; (3C)TriAzLys = (S)-2-amino-6-(4-propyl-1H-1,2,3-triazol-1-yl)hexanoic acid, CCCc1cn(CCCC[C@H](N[*:1])C(=O)[*:2])nn1; B5(13) = 2-amino-2-(pent-4-en-1-yl)hept-6-enoic acid (two alkene chains), C=CCCCC(CCCC=C)(N[*:1])C(=O)[*:2]; 2COOHF = (S)-2-(2-amino-2-carboxyethyl)benzoic acid, O=C([C@H](Cc1ccccc1C(=O)[*:3])N[*:1])[*:2]; B5(3) = 2,2-bis(4-pentenyl)glycine (stitching residue), C=CCCCC(CCCC=C)(N[*:1])C(=O)[*:2]; Phe(2-CF3) = N[C@@H](Cc1ccccc1C(F)(F)F)C(=O)O; Phe(2-Cl) = N[C@@H](Cc1ccccc1Cl)C(=O)O; Phe(2-OMe) = COc1ccccc1C[C@H](N)C(=O)O; 1Nal = N[C@@H](Cc1cccc2ccccc12)C(=O)O; 2Nal = N[C@@H](Cc1ccc2ccccc2c1)C(=O)O; Bta = N[C@@H](Cc1csc2ccccc12)C(=O)O; αAllylPro = C=CC[C@@]1(C(=O)O)CCCN1; tBuAla = CC(C)(C)C[C@H](N)C(=O)O; 3Thi = N[C@@H](Cc1ccsc1)C(=O)O; S8 = C=CCCCCCC[C@](C)(N)C(=O)O; Thr(ol) = C[C@@H](O)[C@H](N)CO

Columns and labels:
[1] = target: B-cat-Halo (beta-catenin HaloTag NanoBRET construct expressed in HEK293 cells) (UniProt P35222); assay: NanoBRET in HEK293 cells, Bcat-Halo + TCF4-Luc (competitor partner TCF4)
Chain of B-cat-Halo (beta-catenin HaloTag NanoBRET construct expressed in HEK293 cells) (P35222 whole entry): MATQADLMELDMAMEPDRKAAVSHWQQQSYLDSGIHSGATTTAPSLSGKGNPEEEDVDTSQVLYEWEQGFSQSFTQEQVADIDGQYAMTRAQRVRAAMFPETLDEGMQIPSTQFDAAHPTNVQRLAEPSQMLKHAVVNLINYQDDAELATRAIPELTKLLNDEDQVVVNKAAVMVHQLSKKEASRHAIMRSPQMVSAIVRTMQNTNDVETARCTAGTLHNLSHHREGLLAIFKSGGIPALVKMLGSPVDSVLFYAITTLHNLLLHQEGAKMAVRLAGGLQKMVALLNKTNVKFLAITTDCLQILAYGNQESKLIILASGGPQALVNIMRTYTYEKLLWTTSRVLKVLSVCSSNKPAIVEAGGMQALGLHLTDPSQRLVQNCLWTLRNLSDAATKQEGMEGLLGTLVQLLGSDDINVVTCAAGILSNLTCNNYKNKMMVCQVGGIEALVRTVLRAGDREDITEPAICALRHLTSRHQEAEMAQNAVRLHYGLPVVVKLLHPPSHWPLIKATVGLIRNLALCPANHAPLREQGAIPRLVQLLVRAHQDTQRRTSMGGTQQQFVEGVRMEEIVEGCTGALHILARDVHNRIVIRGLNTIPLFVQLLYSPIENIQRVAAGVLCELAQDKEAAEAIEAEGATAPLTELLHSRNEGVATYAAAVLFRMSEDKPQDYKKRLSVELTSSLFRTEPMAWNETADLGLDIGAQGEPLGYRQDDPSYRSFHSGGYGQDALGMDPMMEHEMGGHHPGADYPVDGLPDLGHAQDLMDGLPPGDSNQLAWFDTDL

[2] = target: full-length beta-Catenin (Uniprot ID P35222) (Homo sapiens (Human)) (UniProt P35222); assay: fluorescence polarization competition; peptide displaces 5FAM-TCF4(10-53) from full-length beta-catenin
Target sequence in this assay (P35222 2-781 limits assumed): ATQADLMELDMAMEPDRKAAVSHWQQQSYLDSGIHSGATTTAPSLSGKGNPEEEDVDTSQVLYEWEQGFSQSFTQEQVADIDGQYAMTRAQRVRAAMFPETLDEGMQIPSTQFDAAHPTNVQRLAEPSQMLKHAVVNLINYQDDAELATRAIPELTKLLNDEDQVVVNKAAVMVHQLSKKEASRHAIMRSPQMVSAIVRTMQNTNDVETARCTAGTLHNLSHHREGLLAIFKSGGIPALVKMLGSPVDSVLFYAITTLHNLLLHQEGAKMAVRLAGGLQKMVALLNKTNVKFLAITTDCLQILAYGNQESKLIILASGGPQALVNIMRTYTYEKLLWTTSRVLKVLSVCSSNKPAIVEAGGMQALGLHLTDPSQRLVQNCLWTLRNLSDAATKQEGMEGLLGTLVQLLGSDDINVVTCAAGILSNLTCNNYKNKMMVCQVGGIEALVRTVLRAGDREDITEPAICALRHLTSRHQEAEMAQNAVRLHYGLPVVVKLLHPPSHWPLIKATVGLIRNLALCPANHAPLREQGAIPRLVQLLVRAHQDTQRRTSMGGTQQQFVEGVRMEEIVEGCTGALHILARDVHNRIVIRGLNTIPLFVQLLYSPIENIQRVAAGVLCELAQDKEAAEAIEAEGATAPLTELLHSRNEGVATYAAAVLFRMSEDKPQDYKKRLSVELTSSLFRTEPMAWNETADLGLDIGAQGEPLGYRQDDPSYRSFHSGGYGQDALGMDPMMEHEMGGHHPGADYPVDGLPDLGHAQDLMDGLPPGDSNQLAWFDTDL

[3] = target: B-cat-Halo (beta-catenin HaloTag NanoBRET construct expressed in HEK293 cells) (UniProt P35222); assay: NanoBRET in HEK293 cells, Bcat-Halo + TCF4-Luc, peptide at 10 uM
[4] = target: full-length beta-Catenin (Uniprot ID P35222) (Homo sapiens (Human)) (UniProt P35222); assay: fluorescence polarization competition: peptide titrated against 10 nM full-length beta-catenin + 10 nM 5FAM-TCF4(10-53) probe
Target sequence in this assay (P35222 2-781 limits assumed): as above

[5] = target: Bcat-Halo (UniProt P35222); assay: NanoBRET Abs IC50, HEK293 cells, B-cat-Halo / TCF4-Luc engagement
Chain of Bcat-Halo (P35222 whole entry): as the sequence (P35222 whole entry) above

[6] = target: full-length beta-Catenin (Uniprot ID P35222) (Homo sapiens (Human)) (UniProt P35222); assay: fluorescence polarization competition against 5FAM-TCF4 10-53 on full-length beta-catenin
Target sequence in this assay (P35222 whole entry, the tested form may be a part, one chain of several): as the sequence (P35222 whole entry) above

[7] = target: full-length beta-Catenin (Uniprot ID P35222) (Homo sapiens (Human)) (UniProt P35222); assay: fluorescence polarization competition; full-length beta-catenin, 5FAM-TCF4(10-53) probe as competitor
Target sequence in this assay (P35222 2-781 limits assumed): as the sequence (P35222 2-781 limits assumed) above

[8] = target: full-length beta-Catenin (Uniprot ID P35222) (Homo sapiens (Human)) (UniProt P35222); assay: FP competition: displacement of 5FAM-TCF4(10-53) from full-length beta-catenin
Target sequence in this assay (P35222 whole entry, the tested form may be a part, one chain of several): as the sequence (P35222 whole entry) above

[9] = target: B-cat-Halo (beta-catenin HaloTag NanoBRET construct expressed in HEK293 cells) (UniProt P35222); assay: NanoBRET Abs IC50 in HEK293 cells; Bcat-Halo, TCF4-Luc as competitor
[10] = target: Bcat-Halo (UniProt P35222); assay: NanoBRET Abs IC50, HEK293 cells; B-cat-Halo/TCF4-Luc engagement, competitor TCF4-Luc
[11] = target: full-length beta-Catenin (Uniprot ID P35222) (Homo sapiens (Human)) (UniProt P35222); assay: fluorescence polarization competition; full-length beta-catenin with 5FAM-TCF4(10-53) probe as competitor
Target sequence in this assay (P35222 2-781 limits assumed): as the sequence (P35222 2-781 limits assumed) above

[12] = target: full-length beta-Catenin (Uniprot ID P35222) (Homo sapiens (Human)) (UniProt P35222); assay: FP competition; full-length beta-catenin, competitor 5FAM-TCF4(10-53)
Target sequence in this assay (P35222 whole entry, the tested form may be a part, one chain of several): as the sequence (P35222 whole entry) above

[13] = target: Bcat-Halo (beta-catenin HaloTag construct expressed in HEK293 cells) (UniProt P35222); assay: NanoBRET IC50 in HEK293 cells; Bcat-Halo with TCF4-Luc as competitor
Chain of Bcat-Halo (beta-catenin HaloTag construct expressed in HEK293 cells) (P35222 whole entry, the tested form may be a part): as the sequence (P35222 whole entry) above

[14] = target: full-length beta-Catenin (Uniprot ID P35222) (Homo sapiens (Human)) (UniProt P35222); assay: fluorescence polarization competition; 10 nM full-length beta-catenin with 10 nM 5FAM-TCF4 (residues 10-53) probe as competitor
Target sequence in this assay (P35222 2-781 limits assumed): as the sequence (P35222 2-781 limits assumed) above

[15] = target: full-length beta-Catenin (Uniprot ID P35222) (Homo sapiens (Human)) (UniProt P35222); assay: fluorescence polarization competition; displacement of 5FAM-TCF4(10-53) from full-length beta-catenin
Target sequence in this assay (P35222 whole entry, the tested form may be a part, one chain of several): as the sequence (P35222 whole entry) above

[16] = target: B-cat-Halo (NanoBRET construct) (UniProt P35222); assay: NanoBRET Abs IC50; Bcat-Halo/TCF4-Luc in HEK293 cells, competitor TCF4-Luc
Chain of B-cat-Halo (NanoBRET construct) (P35222 whole entry): as above

[17] = target: full-length beta-Catenin (Uniprot ID P35222) (Homo sapiens (Human)) (UniProt P35222); assay: fluorescence polarization competition; full-length beta-catenin, 5FAM-TCF4(10-53) probe
Target sequence in this assay (P35222 whole entry, the tested form may be a part, one chain of several): as the sequence (P35222 whole entry) above

[18] = target: full-length beta-Catenin (Uniprot ID P35222) (Homo sapiens (Human)) (UniProt P35222); assay: AlphaScreen competition vs biotin-TCF4(10-53) on full-length beta-catenin
Target sequence in this assay (P35222 whole entry, the tested form may be a part, one chain of several): as the sequence (P35222 whole entry) above

[19] = target: full-length beta-Catenin (Uniprot ID P35222) (Homo sapiens (Human)) (UniProt P35222); assay: fluorescence polarization competition; 10 nM full-length beta-catenin with 10 nM 5FAM-TCF4(10-53) probe as competitor
Target sequence in this assay (P35222 2-781 limits assumed): as the sequence (P35222 2-781 limits assumed) above

B1: I-781 (peptide)
peptide: Ac-[αAllylPro]D[tBuAla][B5(13)]DDAAFN[PyrS2][Phe(2-OMe)][Bta]H-NH2
modifications: staple 1-4, 4-11
B1 showed an IC50 [1] of 11600 nM, an IC50 [2] of 5 nM and a NanoBRET % inh @ 10 uM [3] of 24%. It also gave an EC50 [4] of 5 nM.

B2: I-2375 (peptide)
peptide: Ac-[αAllylPro]D[tBuAla][B5(4)]DDAAFL[PyrS2″][3Thi][Bta][(3C)TriAzLys]-NH2
modifications: staple 1-4, 4-11
For B2, the IC50 [5] was 13500 nM and the IC50 [6] was 5 nM.

B3: I-1232 (peptide)
peptide: Ac-[αAllylPro]D[tBuAla][B5(5)]DDAAFT[PyrS2″][3Thi][1Nal]Q-NH2
modifications: staple 1-4, 4-11
In the case of B3, the IC50 [7] is reported as 31 nM, the EC50 [8] is reported as 31 nM and the IC50 [9] is reported as 43300 nM.

B4: I-1233 (peptide)
peptide: Ac-[αAllylPro]D[tBuAla][B5(5)]DDAAFT[PyrS2″][3Thi][2Nal]Q-NH2
modifications: staple 1-4, 4-11
B4 was tested, and the IC50 [7] was 24 nM, the EC50 [8] was 24 nM and the IC50 [9] was 54500 nM.

B5: I-1356 (peptide)
peptide: [αAllylPro]D[tBuAla][B5(4)]DDAAFS[PyrS2″]F[Bta]S-NH2
modifications: staple 1-4, 4-11
B5 was tested, and the IC50 [10] was over 20000 nM, the IC50 [11] was 23 nM and the EC50 [12] was 23 nM.

B6: I-844 (peptide)
peptide: Ac-[αAllylPro]D[tBuAla][B5(4)]DTAAFN[PyrS2][3Thi][Bta]Q-NH2
modifications: staple 1-4, 4-11
For B6, the IC50 [13] was 10700 nM, the EC50 [14] was 6 nM and the IC50 [15] was 6 nM.

B7: I-784 (peptide)
peptide: Ac-[αAllylPro]D[tBuAla][B5(5)]DDAAFN[PyrS2][Phe(2-Cl)][Bta]H-NH2
modifications: staple 1-4, 4-11
For B7, the IC50 [1] was 12100 nM, the IC50 [2] was 6 nM and the NanoBRET % inh @ 10 uM [3] was 35.1%. For the same binder, the EC50 [4] was 6 nM.

B8: I-1665 (peptide)
peptide: Ac-[αAllylPro]D[tBuAla][B5(5)]D[2COOHF]AAFF[PyrS2″][3Thi][Bta]S-NH2
modifications: staple 1-4, 4-11
In the case of B8, the IC50 [16] is reported as 9700 nM and the IC50 [17] is reported as 17 nM.

B9: I-1363 (peptide)
peptide: Ac-[αAllylPro]D[tBuAla][B5(4)]DDAAF[Phe(2-CF3)][PyrS2][3Thi][Bta]Q-NH2
modifications: staple 1-4, 4-11
B9 was tested, and the IC50 [10] was 5500 nM, the IC50 [11] was 9 nM and the EC50 [12] was 9 nM.

B10: I-1668 (peptide)
peptide: Ac-[αAllylPro]D[tBuAla][B5(5)]D[2COOHF]AAFF[PyrS2″][3Thi][Bta][Thr(ol)]
modifications: staple 1-4, 4-11; also: staple isomer, earlier-eluting HPLC peak
Binder B10 has an IC50 [16] of 16400 nM and an IC50 [17] of 29 nM.

B11: I-786 (peptide)
peptide: Ac-[αAllylPro]D[tBuAla][B5(5)]DEAAFN[PyrS2][3Thi][Bta]-NH2
modifications: staple 1-4, 4-11
Binder B11 has an IC50 [1] of 17100 nM, an IC50 [2] of 8 nM and an EC50 [4] of 8 nM.

B12: I-296 (peptide)
peptide: Ac-[αAllylPro]DA[B5(4)]D[2Nal]AAFQ[S8]F[Bta]A-NH2
modifications: staple 1-4, 4-11
B12 was tested, and the EC50 [18] was 1910 nM.

B13: I-807 (peptide)
peptide: Ac-[αAllylPro]D[tBuAla][B5(3)]DDAAFF[PyrS2″][3Thi][Bta]Q-NH2
modifications: staple 1-4, 4-11
Binder B13 has an IC50 [19] of 5 nM, an IC50 [1] of 5300 nM and an EC50 [4] of 5 nM.
